Earlier results in US20230023414A1, “METHODS AND DEVICES FOR TREATING A DISEASE WITH BIOTHERAPEUTICS” (PROGENITY, INC., priority 2018, published 2023).

B1: pegfilgrastim (protein, UniProt P09919 31-207, looked up)
Granulocyte …: TPLGPASSLPQSFLLKCLEQVRKIQGDGAALQEKLVSECATYKLCHPEELVLLGHSLGIPWAPLSSCPSQALQLAGCLSQLHSGLFLYQGLLQALEGISPELGPTLDTLQLDVADFATTIWQQMEELGMAPALQPTQGAMPAFASAFQRRAGGVLVASHLQSFLEVSYRVLRHLAQP
modifications: N-terminal Met, 20 kDa PEG
B2: emicizumab (antibody, chains of the INN, looked up, V domains shown)
VH: QVQLVQSGSELKKPGASVKVSCKASGYTFTDNNMDWVRQAPGQGLEWMGDINTRSGGSIYNEEFQDRVIMTVDKSTDTAYMELSSLRSEDTATYHCARRKSYGYYLDEWGEGTLVTVSS
VL: DIQMTQSPSSLSASVGDRVTITCKASRNIERQLAWYQQKPGQAPELLIYQASRKESGVPDRFSGSRYGTDFTLTISSLQPEDIATYYCQQYSDPPLTFGGGTKVEIK
VH2: QVQLVESGGGLVQPGGSLRLSCAASGFTFSYYDIQWVRQAPGKGLEWVSSISPSGQSTYYRREVKGRFTISRDNSKNTLYLQMNSLRAEDTAVYYCARRTGREYGGGWYFDYWGQGTLVTVSS
VL2: DIQMTQSPSSLSASVGDRVTITCKASRNIERQLAWYQQKPGQAPELLIYQASRKESGVPDRFSGSRYGTDFTLTISSLQPEDIATYYCQQYSDPPLTFGGGTKVEIK
B3: evolocumab (antibody, chains of the INN, looked up, V domains shown)
VH: EVQLVQSGAEVKKPGASVKVSCKASGYTLTSYGISWVRQAPGQGLEWMGWVSFYNGNTNYAQKLQGRGTMTTDPSTSTAYMELRSLRSDDTAVYYCARGYGMDVWGQGTTVTVSS
VL: ESALTQPASVSGSPGQSITISCTGTSSDVGGYNSVSWYQQHPGKAPKLMIYEVSNRPSGVSNRFSGSKSGNTASLTISGLQAEDEADYYCNSYTSTSMVFGGGTKLTVL
B4: concizumab (antibody, chains of the INN, looked up, V domains shown)
VH: EVQLVESGGGLVKPGGSLRLSCAASGFTFSNYAMSWVRQTPEKRLEWVATISRSGSYSYFPDSVQGRFTISRDNAKNSLYLQMNSLRAEDTAVYYCARLGGYDEGDAMDSWGQGTTVTVSS
VL: DIVMTQTPLSLSVTPGQPASISCKSSQSLLESDGKTYLNWYLQKPGQSPQLLIYLVSILDSGVPDRFSGSGSGTDFTLKISRVEAEDVGVYYCLQATHFPQTFGGGTKVEIK

Settings: SC administration

| Molecule | Approved Dosing Info: Bio Avail | Baseline dose: Bioavail. (dose info for non-approved agents from clinical trial information) |
| --- | --- | --- |
| B1 | 70% | – |
| B2 | 85% | – |
| B3 | 82% | – |
| B4 | – | 93.0% |
